Measured values from the domain aggregation screens of Martell et al. (2025).

Assay: soluble fraction after stress (log2 fold change); higher = more stays soluble; pooled small domains, quantitative proteomics
Details: stress: 50 degC
How it was run: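 After stress at 50°C, the amount of each protein still soluble was measured. This was done on pooled custom libraries of small protein domains, using high-throughput quantitative proteomics. The figure given is a base-two log fold change and stands for aggregation propensity, with higher values meaning more protein stays in solution.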

Sequence	soluble fraction (log2)
HMEVLSYYGSRGQEVVNIQTKLKQWGYYKGNIDGIFGNLTYQAVREFQRKNGLKVDGIVGPETLAALGLPT	-0.187
HMVSKIEAPLPGIILSVDVKEGDTVKAGDKLMVMEAMKMENAILAETNGVVKSIKVKIQDSVLQGDILAEI	-0.171
HMIEEIETQFLFDFGLIGHPNSAKIREKLSEALGIGYVNGKQLQKRLMMFGITKQQVVDVLTD	-4.94
HMLPKTVTLIDPVSGVAKTVTWVPALTLYSARRKAGLNRVPNTATIDRGGRELTGKRGSTLQPGDVVRW	-0.425
HMNKKEQYQNIISNFLEKMSEEDRLIFNMHFFKSINISQIARSIDREGYYVKTKIENLLADLKSLMIGNNL	-1.95
HMYFMDEETWESKKTLLNDWYEANPEYADRRAISDGLFKIGDLQPDFRRRHWGSIGVIFADIPNSPMG	-0.915
HMDEARLAVASNLIRLRTDAGMTQAELGEKLNYSDKTISKWERAEAIPDAFVLKQIGELFHVSVDFLLRTH	-0.37
HMERLSVSMGDMVVFVRDAVEAFRGLVKEKGITLTFESKVEHFYMNYDHDKVYKVVNNLLSNAVKFT	-0.209
HMSRSSQMVNFIRLLSQEKKVSVNSIFSSSVQLSDGIIVKINDFYYRVNLSLDQKTYSLVEVS	-0.486
HMRDLITYVVQINGKLRGKLEVAPDTDPEELKALALEVENVKRSLEGWVVKKVIVVPGKMVSIAAG	-0.193
HMQPSFFEMIRMVESYIKQHFENVGNEFPEIARAIYYGIEEERNIYGTASREDMEELLDEGIPILPVP	-0.926
HMTPAPHESLTDREMEVLKLLAQGLSNQEIADKLFIGVKTVKYHITNIFSKLGVEDRTQAAIYAHKQGLA	0.0163
HMKSVLDDVAGLGPVRKKALLKAMGGFTRLRAASLDDILAVRAVPEEVAREVFAVLAQYNSVRNNDISE	-0.273
HMNNWRRSLEREVTASLARGDRDIFDGLNRSFEAALITKALEHTGGRRIEAATLLGIGRNTLTRKIQDLGL	-1.83
HMTQPAEINRLVEQMGSSDYKSRQEAYERLHQMGPGILDLIYPYRNHADPEIQTRVRELILSYRW	0.264
HMESSREVSFSEFMKQIDSGRVSSVKLDGETIYVRNSDGTSYKVIQPLGTDLIGVLRKSDIDVQAIKQ	-0.003
HMTTTTTYITNTDAVNIRQQATTSSTSLGKLAKNTILSVKKKSGDWYQITYKKQTAYIHASLVDKKTAKVT	-0.556
HMAPPTAEFFAHLPAEALSAVRRSVEEGNARGIDEAILRVETLDGEAGRVLRGLAARYEYGRILELTQR	0.117
HMKEPQLGPVRKWSDQTGNFGIEAQFVKREGDNILLKRADQRTISIPLEKLSDADQEHLKQEEQKQAME	-0.138
HMDFDQELFDKIVEATMDEARAAMDTDDKNVREERWNKLIEHWHELFLEDYPEMDKYLEEITYKFQKNPAT	-0.302
HMKNTVGEYRKLKSTTILYSNSDLTGTKYTYLPNTTVKILKNISSTVDYVYIKATNRYAYINIYAYT	-2.75
HMGANSAYMAMRDRIQQRLLAELSPGVTRSDTAEVRRVVERIFNETTAELGLPLSRLERNDIFDLVLADIL	-0.792
HMRLSVVDLQDSLRGLEYPAGKGDLINHAREHNASADVIAVLEQFSERTYRSAADVGEEFGRV	0.111

Sequence	soluble fraction (log2)
HMGDEVAVTEILVKVGDTVEADQSLLTVEGDKASMEVPAPFAGVVKAIQVQLGDKVVTGSPIMLFEV	-0.00831
HMAEVHVDGVTYQFSNPEQAVKFARKIAKELGLKVEVHGETVHVK	-0.156
HMEKGLQYRRTDRAIMNAFIKLVNQGSFEKLTVQEILDEALVSRNTFYAHYRDIYDLMDALSN	-1.55
HMDLEGLSNKELVTLRGQIQDDLNKWATEVGIIDPKNRPDDYNRALQSLEDAKRQRSAIDAKL	0.0869
HMPYSAAVTFLDDAKQPMVNYNYRLIAENGIEVSGITDEFGKTQPIQTDQREKVDLYIADLPN	0.495
HMSSWEVLAEPIQTVMRRYGVPGAYEKLKEVTRGKSLTAEALHALIRSLDIPQADKERLLALTPAAWA	-0.703
HMGRSYTIKSGDTLWAIATRYYGNGAQYSKIYNANKGTIESVAKSRGFRSSQNGHWIFPGTSITI	-0.207
HMVNPIDFYLLFRTELQRLAEHPITVDRLTEVTGLNKLQVLDWLKRAEQDGLVKKLNRPTRYQLN	-0.0401
HMSELDSYIGARLRMRRLMLGMSQEALGEKLSLTFQQIQKYEKGTNRVSASRLYELAQVLDVPVQFFFDGA	-2.93
HMETEQVEMIRVVGMHVDEAKKALLDLGLSPEIKYEESSSYDAGTVLRASVQDGLMIDKGTNIVLTVAEA	0.121
HMQNSPVFAASDIEDIRVGMTVEHQRFGQGRVMSIEGNGPNKKTTVLFEGIGEKQLLLQYAKLKIV	0.157
HMVVMKGKVKWFNKNKGYGFIITDDNKEYFVHWKSIVTNSPRELKVLEQDELVTFDLMETDKGIQAINII	-2.14
HMHMSKKLADSIISLRRKHGFSQEQLAEKIGVTRQAISNWERGTATPDVETLNLIAKLFDMDLLAIINGE	0.0766
HMREEFIGVLDGKVAIFHGRPERKGPLKEVTAIEVDKLPRQEQADLEKGLVIRTDKEKLQLMEGLAALLD	0.289
HMLPVDALFAQHPALIVTLGQTEKLKHGAAIRDWHFADGTYRVYSETGEFLLLGTVKGQILTTVKSFFE	-2.08
HMNTLRFPEGTPEKDRMSIILASYNSGIGHVNDARRLARLNGEDPNSWEVVARYLQLKAQPEYYESEAVK	-0.0728
HMSYPTAVTQTTLNVRTGPGTQYERLGAFVENTEVIVLTRQPEWIQVRGMSGDKAIIGWVSARYLQMNP	-0.457
HMGMSENIDKVAGGIPYKVEGNKAIINEPLDDATKERLMGKAKEHGYHAAPNQAGGITITLK	0.134
HMTKEGVNISITADGVQLSTESPNRVSIFNVNGTKVWEGIAPANVSLQKGVYILQTANGNTKFV	0.265
HMDLDEELDFLSDADESATKLDLARAYIDMGDKDGARDILAEVLEEGRSEQKREAQALLDSI	0.406
HMEALDPLTAREQEVLEMILSGKSNREIAAELHITENTVKTHAQSIYSKYDVRGRAKLISLLLKGEA	-0.102
HMLKHNLLSELSRIEGVGAVKRKALMDKFGTVENIKRASEEELSEVAGIGPTLARTIKEQMNKDE	-0.184
HMYNMEELAGHTEKVYNSLPEELKLVIKLREIENMSYDEISLKTGMPIGTVRSRLHRAREILVDSLKDY	-0.367

Sequence	soluble fraction (log2)
HMTDIVPNLIGKSLKDAIQSVEKSNLKAIFDGHGIVVSQQPRPGSPIPARKIMKVTLSPDYR	0.011
HMDIPTSAEAVRAYLASGFIKGIGEATARMLVDKFGAETLEIIKTEPMKLTKISGIGPKKAKMIHESYLEK	0.177
HMVKTIINGEEKDFDAQDFQTFGDFLKKVIPEGQILKSLKINSKDVPIAFIDELKSATVDENITIEMELA	0.429
HMAEKVIVVADSITVGELAEKLNLPVTNLIGELFKNGIVSTINQRIDFETASIIVEELGLDVELERK	-0.0299
HMLQSGSDYLIEQVRMYTATGQREYMDNYFEELNTTRRRENALEYFAEHYGDNDAFTLLKSAMTTSQN	-0.428
HMSFGYFQLRAKDPQKLKSVLEKIPQIQSIKEEKGDLIGYLNADMEAEELSQKLAAAKIFVTHMAKKK	-0.0166
HMRHDSEGYYRLIGVPPDADDAELKEAAKKRLMEAHPDHGGSEDEFVEVYRAYRTLTDPSARAEYDARP	0.307
HMAEAETVKFVGNSLLLVSGAAKGERLSVYTVGGQHVLSADATKPVDVAALHSGVYVVRTTNGVITKIVK	-0.749
HMVNIAVMTVSDTRTEADDKSGSLLVSKIEGDGHVLADRAIITDDVPRIIAKLKEWIESPQVDVVVT	0.0468
HMSKASLFFLFNHKDELYIVDNNHVQDVPKPRELIRRFSTIEQIREHALHLGLPIANDTARE	-0.723
HMGQMGHAVVAKTDLAVGTPLTRDLVAVREVPVEWLHSSAITPEQFERAAGAVLAQPARGGEPLVWSQLEE	0.0906
HMTIAEGLIFRFTEPFKPIDQYTYYIMGDNKVEQIPNFKTLEVMLAQRNQNYLSVRVIEKSQLDDILKEF	-4.04
HMPTKSDLLQWIKDRASKMGGAFTNSGAYALADAGVDGPRALSSEINKLLTYVNWERSVEADDVIRL	-0.13
HMGSEISLNAFNIPKGSVSVTAGGTKLVENQDYTVDYTLGRIKILNEGILNSGVPIQVNFENNTLFN	0.0829
HMGTKDVNAAPSAVGRTYDEAIEILNGYKAGYLEEYSDTVPKGTVISQSVQDGQVVIVVSLGPKPS	0.0391
HMAEPIEKIIIEGNQRIEALTIQSYLLLRVGEPFNRQLMNQTLKSLYATGYFSDVAVTRVSSSLLVK	0.133
HMASQVERGAVVVTDQRIFFIGVSSEGIEVHGTKIFGMSEKAPLYSHMKGLKKGDSFQFNGLKYVIQDIY	-3.39
HMGIKSSASLQEAAEKAQSAYYDIEHSGVATAVDIQRAWVAMVAAQIDAGEKLDSGTITLYERLKTST	0.0423
HMNPSKEFNMSDLLKAKMVGDVSAAKRREKAGALLHIGYGNAKTFLKKLNHFSISREEWDKVIAAMEEF	-0.743
HMATMSIDERILEIRSRAGLTQQEMADRLFVTRQAVSRWERGETVPGIDTLRLIAEAFDVRVDQILEL	-1.69
HMPYPSPADLARMDELIAWVKDEGRLPRDRSGQRSERSMARWLAARRREAAEGTLDPAYRDGLAQVPGWR	-0.368
HMADENIELRKAGLKVTLPRVKILQILEAAKEPHMSAEDVYKALMEANEEVGLATVYRVLTQFESAGL	-0.267
HMIQRLNVNTEVLSTYIRNSNTPIEYLRQKLPNIDKFLKGELEPTFNQVYALSKLINIPTGLLLLKEPIS	-0.995
